Measured values from publication PMC4108505 (Journal of molecular biology, 2014).

What was measured:
Assay in all cases: fluorescence polarisation
[1] = molecular target: T1, SipD^t S148E (Salmonella, UniProt Q56026 101-343, S148E)
T1 sequence: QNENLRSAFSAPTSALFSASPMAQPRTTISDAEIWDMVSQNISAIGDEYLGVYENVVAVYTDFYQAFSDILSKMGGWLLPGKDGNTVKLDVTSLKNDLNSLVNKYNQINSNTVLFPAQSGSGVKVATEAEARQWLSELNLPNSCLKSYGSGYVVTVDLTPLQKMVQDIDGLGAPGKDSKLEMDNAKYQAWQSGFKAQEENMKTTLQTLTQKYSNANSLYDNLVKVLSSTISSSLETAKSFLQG

[2] = molecular target: T2, SipD^t V157K (Salmonella, UniProt Q56026 101-343, V157K)
T2 sequence: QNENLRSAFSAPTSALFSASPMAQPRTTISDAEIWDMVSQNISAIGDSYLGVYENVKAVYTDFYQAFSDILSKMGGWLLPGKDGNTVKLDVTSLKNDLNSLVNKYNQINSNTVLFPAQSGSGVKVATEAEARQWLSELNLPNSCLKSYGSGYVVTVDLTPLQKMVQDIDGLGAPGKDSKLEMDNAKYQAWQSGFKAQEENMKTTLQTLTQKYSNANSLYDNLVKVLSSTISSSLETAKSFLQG

[3] = molecular target: T3, SipD^t S313E (Salmonella, UniProt Q56026 101-343, S313E)
T3 sequence: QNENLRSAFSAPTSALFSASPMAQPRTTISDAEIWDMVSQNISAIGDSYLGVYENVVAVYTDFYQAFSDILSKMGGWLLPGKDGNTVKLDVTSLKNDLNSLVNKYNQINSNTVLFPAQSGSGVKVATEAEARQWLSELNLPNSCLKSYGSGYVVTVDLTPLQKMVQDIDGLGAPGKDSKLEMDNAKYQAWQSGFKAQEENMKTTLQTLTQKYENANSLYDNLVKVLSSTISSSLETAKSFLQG

[4] = molecular target: T4, SipD^t D320R (Salmonella, UniProt Q56026 101-343, D320R)
T4 sequence: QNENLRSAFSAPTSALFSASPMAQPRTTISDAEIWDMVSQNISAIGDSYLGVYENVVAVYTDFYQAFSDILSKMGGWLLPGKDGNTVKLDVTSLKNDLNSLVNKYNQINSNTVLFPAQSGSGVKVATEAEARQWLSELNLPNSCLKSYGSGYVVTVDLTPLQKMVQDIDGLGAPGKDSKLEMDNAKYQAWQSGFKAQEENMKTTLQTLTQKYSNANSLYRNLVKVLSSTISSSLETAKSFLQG

[5] = molecular target: T5, SipD^t V323K (Salmonella, UniProt Q56026 101-343, V323K)
T5 sequence: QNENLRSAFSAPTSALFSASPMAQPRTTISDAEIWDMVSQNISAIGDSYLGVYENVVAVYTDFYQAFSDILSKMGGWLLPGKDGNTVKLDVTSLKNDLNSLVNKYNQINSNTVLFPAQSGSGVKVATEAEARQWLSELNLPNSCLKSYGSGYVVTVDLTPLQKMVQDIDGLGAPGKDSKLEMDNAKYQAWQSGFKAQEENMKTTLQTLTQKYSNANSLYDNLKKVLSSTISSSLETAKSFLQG

[6] = molecular target: T6, SipD^t (truncated form of SipD lacking the N-terminal alpha-helical hairpin, residues 101-343) (Salmonella, UniProt Q56026 101-343)
T6 sequence: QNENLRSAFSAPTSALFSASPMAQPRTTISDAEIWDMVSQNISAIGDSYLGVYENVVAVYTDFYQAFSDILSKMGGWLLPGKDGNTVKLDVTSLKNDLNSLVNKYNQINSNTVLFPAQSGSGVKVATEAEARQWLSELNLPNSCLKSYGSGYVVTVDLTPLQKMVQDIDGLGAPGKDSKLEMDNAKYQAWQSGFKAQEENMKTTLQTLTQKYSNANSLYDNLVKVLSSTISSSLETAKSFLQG

B1: PrgI V65A/V67A/L31C labelled with Alexa Fluor 488-C5-maleimide (natural protein)
chain: MATPWSGYLDDVSAKFDTGVDNLQTQVTEACDKLAAKPSDPALLAAYQSKLSEYNLYRNAQSNTAKAFKDIDAAIIQNFR
modifications: Alexa Fluor 488-C5-maleimide on the cysteine of L31C
Kd [1]: 189 ± 20 µM | binding result [2]: binds | binding result [3]: binds | binding result [4]: binds | binding result [5]: binds | Kd [6]: 108 ± 10 µM
